Article PMC4225485, “The PHD1 finger of KDM5B recognizes unmodified H3K4 during the demethylation of histone H3K4me2/3 by KDM5B” (Protein & Cell, 2014)
Changes are numbered by the printed parent chain.

Experiments:
PHD1KDM5B (306–360 aa) = target: T1, PHD1KDM5B (306–360 aa) (Homo sapiens, UniProt Q9UGL1); experiment: ITC binding of H3 peptides to PHD1KDM5B
T1 construct: PHDKDM5B (residues 306–360 aa); GST (N, cleaved yes); made in house
T1 sequence (Q9UGL1 306-360): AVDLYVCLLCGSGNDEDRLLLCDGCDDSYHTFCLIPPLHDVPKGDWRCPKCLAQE
Excerpt: The details of the preparation, purification, crystallization and determination of the PHDKDM5B (residues 306–360 aa) X-ray structure were previously described (Guo et al., [2011]). The modified pGEX-6p-1 vectors expressed proteins with the N-terminal GST tag, which is removable by cleavage with a 3C protease, enabling the use of non-tagged proteins in our studies. Only the X-ray structure of free PHD1KDM5B was obtained.
To study the binding affinities in vitro or to construct different NMR samples of the complex, H3K4 peptides without modifications (with the ARTKQTARKS sequence or […] sequence) or with some modifications (H3R2me1, R2 monomethylation; H3R2me2s, R2 symmetric dimethylation; H3R2me2a, R2 asymmetric dimethylation; H3K4me1/2/3, K4 mono-, di-, and tri-methylation; H3K9me1/2/3, K9 mono-, di- and tri-methylation; H3 peptide A1G, R2A, T3V, K4A, Q5E, T6V mutants without any modification) were purchased from GL Biochem Ltd. (Shanghai, China), and their purity was confirmed by HPLC and mass spectrometry.
To investigate whether the PHD1KDM5B finger and its mutants interact with unmodified or methylated H3K4 or H3K4mutants, the binding affinities of PHD1KDM5B or its mutants to H3 peptides were studied. An ITC-200 microcalorimeter (GE Healthcare) was used with a buffer containing 20 mmol/L Tris, 150 mmol/L NaCl, and 1% Triton X-100, pH 7.5 at 25°C. The reference titration of small molecules in the buffer was subtracted from the experimental data, and the data were fitted using the Origin 7.0 (OriginLab Corporation) software.

[1] = target: PHD1 finger of KDM5B (residues 306-360) (UniProt Q9UGL1); experiment: ITC; ITC-200, 20 mmol/L Tris, 150 mmol/L NaCl, 1% Triton X-100, pH 7.5, 25°C
KDM5B-PHD1-V311A = target: T2, KDM5B-PHD1-V311A (Homo sapiens); experiment: ITC
T2 chain: T1 sequence (Q9UGL1 306-360) with V6A

KDM5B-PHD1-D332A = target: T3, KDM5B-PHD1-D332A (Homo sapiens); experiment: ITC
T3 chain: T1 sequence (Q9UGL1 306-360) with D27A

KDM5B-PHD1-D345A = target: T4, KDM5B-PHD1-D345A (Homo sapiens); experiment: ITC
T4 chain: T1 sequence (Q9UGL1 306-360) with D40A

KDM5B-PHD1-Y334A = target: T5, KDM5B-PHD1-Y334A (Homo sapiens); experiment: ITC
T5 chain: T1 sequence (Q9UGL1 306-360) with Y29A

KDM5B-PHD1-S333A = target: T6, KDM5B-PHD1-S333A (Homo sapiens); experiment: ITC
T6 chain: T1 sequence (Q9UGL1 306-360) with S28A

KDM5B-PHD1-D322A = target: T7, KDM5B-PHD1-D322A (Homo sapiens); experiment: ITC
T7 chain: T1 sequence (Q9UGL1 306-360) with D17A

KDM5B-PHD1-L309A = target: T8, KDM5B-PHD1-L309A (Homo sapiens); experiment: ITC
T8 chain: T1 sequence (Q9UGL1 306-360) with L4A

KDM5B-PHD1-L324A = target: T9, KDM5B-PHD1-L324A (Homo sapiens); experiment: ITC
T9 chain: T1 sequence (Q9UGL1 306-360) with L19A

[2] = target: T10, PHD1_(KDM5B) D308A mutant (UniProt Q9UGL1 306-360, D308A); experiment: ITC; ITC-200, 20 mmol/L Tris, 150 mmol/L NaCl, 1% Triton X-100, pH 7.5, 25°C; details: both partners purified
T10 construct: also called PHD1 D308A; source: recombinant from modified pGEX-6p-1, site-directed mutagenesis; not shown: GST, N-terminal, cleaved
T10 sequence (looked up): T1 sequence (Q9UGL1 306-360) with D3A

[3] = target: T11, PHD1_(KDM5B) Y310F mutant (UniProt Q9UGL1 306-360, Y310F); experiment: as above; details: both partners purified
T11 construct: also called PHD1 Y310F; source: recombinant from modified pGEX-6p-1, site-directed mutagenesis; not shown: GST, N-terminal, cleaved
T11 sequence (looked up): T1 sequence (Q9UGL1 306-360) with Y5F

[4] = target: T12, PHD1_(KDM5B) E321A mutant (UniProt Q9UGL1 306-360, E321A); experiment: as above; details: both partners purified
T12 construct: also called PHD1 E321A; source: recombinant from modified pGEX-6p-1, site-directed mutagenesis; not shown: GST, N-terminal, cleaved
T12 sequence (looked up): T1 sequence (Q9UGL1 306-360) with E16A

[5] = target: T13, PHD1_(KDM5B) Y310A mutant (UniProt Q9UGL1 306-360, Y310A); experiment: as above; details: both partners purified
T13 construct: also called PHD1 Y310A; source: recombinant from modified pGEX-6p-1, site-directed mutagenesis; not shown: GST, N-terminal, cleaved
T13 sequence (looked up): T1 sequence (Q9UGL1 306-360) with Y5A

[6] = target: T14, PHD1_(KDM5B) D328A mutant (UniProt Q9UGL1 306-360, D328A); experiment: as above; details: both partners purified
T14 construct: also called PHD1 D328A; source: recombinant from modified pGEX-6p-1, site-directed mutagenesis; not shown: GST, N-terminal, cleaved
T14 sequence (looked up): T1 sequence (Q9UGL1 306-360) with D23A

[7] = target: T15, PHD1_(KDM5B) L326A mutant (UniProt Q9UGL1 306-360, L326A); experiment: as above; details: both partners purified
T15 construct: also called PHD1 L326A; source: recombinant from modified pGEX-6p-1, site-directed mutagenesis; not shown: GST, N-terminal, cleaved
T15 sequence (looked up): T1 sequence (Q9UGL1 306-360) with L21A

[8] = target: T16, PHD1 finger of KDM5B (residues 306-360) (UniProt Q9UGL1 306-360); experiment: as above; details: both partners purified
T16 construct: 15N- or 13C/15N-labelled (M9 medium) for the NMR experiments; GST removed with 3C protease; also called PHD1_(KDM5B); PHD_(KDM5B); source: recombinant from modified pGEX-6p-1, purified; preparation described in Guo et al., 2011; not shown: GST, N-terminal, cleaved
T16 sequence (looked up): T1 sequence (Q9UGL1 306-360)

[9] = target: H3K4 (1-10aa) K4A (Homo sapiens); experiment: ITC; details: domain or fragment; chains chain
[10] = target: H3K4 (1-10aa) Q5E (Homo sapiens); experiment: ITC; details: domain or fragment; chains chain
[11] = ITC-200, 20 mmol/L Tris, 150 mmol/L NaCl, 1% Triton X-100, pH 7.5, 25°C, H3 peptides residues 1–10, means (± s.d.) of at least three experiments
[12] = Table S1, pH 7.5, 25°C, H3 peptides (1-10aa), N.D. means non-detectable

Q: C[C@H](NC(=O)[C@@H](NC(=O)[C@H](CCC(N)=O)NC(=O)[C@H](CCCCN)NC(=O)[C@@H](NC(=O)[C@H](CCCNC(=N)N)NC(=O)CN)[C@@H](C)O)[C@@H](C)O)C(=O)N[C@@H](CCCNC(=N)N)C(=O)N[C@@H](CCCCN)C(=O)N[C@@H](CO)C(=O)O [H3K4 (1-10aa) A1G] was tested. Which Kd (PHD1KDM5B (306–360 aa); [11]) did it give?
A: 305 ± 11.7 µM

Q: Which Kd (PHD1KDM5B (306–360 aa); [12]) does the source give for C[C@H](N)C(=O)N[C@@H](CCCNC(=N)N)C(=O)N[C@H](C(=O)N[C@@H](C)C(=O)N[C@@H](CCC(N)=O)C(=O)N[C@H](C(=O)N[C@@H](C)C(=O)N[C@@H](CCCNC(=N)N)C(=O)N[C@@H](CCCCN)C(=O)N[C@@H](CO)C(=O)O)[C@@H](C)O)[C@@H](C)O [H3K4 (1-10aa) K4A] here?
A: 15.9 ± 1.2 µM

Q: How did the Kd (PHD1KDM5B (306–360 aa); [12]) turn out when C[C@H](N)C(=O)N[C@@H](CCCNC(=N)N)C(=O)N[C@H](C(=O)N[C@@H](CCCCN)C(=O)N[C@@H](CCC(=O)O)C(=O)N[C@H](C(=O)N[C@@H](C)C(=O)N[C@@H](CCCNC(=N)N)C(=O)N[C@@H](CCCCN)C(=O)N[C@@H](CO)C(=O)O)[C@@H](C)O)[C@@H](C)O [H3K4 (1-10aa) Q5E] was run?
A: 21.4 ± 1.7 µM

Q: With C[C@H](N)C(=O)N[C@@H](C)C(=O)N[C@H](C(=O)N[C@@H](CCCCN)C(=O)N[C@@H](CCC(N)=O)C(=O)N[C@H](C(=O)N[C@@H](C)C(=O)N[C@@H](CCCNC(=N)N)C(=O)N[C@@H](CCCCN)C(=O)N[C@@H](CO)C(=O)O)[C@@H](C)O)[C@@H](C)O [H3K4 (1-10aa) R2A] as the molecule, how does the Kd (PHD1KDM5B (306–360 aa); [11]) read?
A: 370 ± 52.1 µM

Q: For CC(C)[C@H](NC(=O)[C@H](CCCNC(=N)N)NC(=O)[C@H](C)N)C(=O)N[C@@H](CCCCN)C(=O)N[C@@H](CCC(N)=O)C(=O)N[C@H](C(=O)N[C@@H](C)C(=O)N[C@@H](CCCNC(=N)N)C(=O)N[C@@H](CCCCN)C(=O)N[C@@H](CO)C(=O)O)[C@@H](C)O [H3K4 (1-10aa) T3V], which Kd (PHD1KDM5B (306–360 aa); [11]) is on record?
A: 57.1 ± 2.2 µM

Q: With CC(C)[C@H](NC(=O)[C@H](CCC(N)=O)NC(=O)[C@H](CCCCN)NC(=O)[C@@H](NC(=O)[C@H](CCCNC(=N)N)NC(=O)[C@H](C)N)[C@@H](C)O)C(=O)N[C@@H](C)C(=O)N[C@@H](CCCNC(=N)N)C(=O)N[C@@H](CCCCN)C(=O)N[C@@H](CO)C(=O)O [H3K4 (1-10aa) T6V] as the molecule, how does the Kd (PHD1KDM5B (306–360 aa); [11]) read?
A: 61.3 ± 1.6 µM

Q: With “H3 peptide A1G mutant (from UniProt P68431 2-11)” as the molecule, how does the Kd [1] read?
A: 305 µM

Q: How did the Kd [1] turn out when “H3 peptide R2A mutant (from UniProt P68431 2-11)” was run?
A: 370 µM

Q: How did the Kd [1] turn out when “H3 peptide T3V mutant (from UniProt P68431 2-11)” was run?
A: 57.1 µM

Q: How did the Kd [1] turn out when “H3 peptide T6V mutant (from UniProt P68431 2-11)” was run?
A: 61.3 µM

Q: With “H3K4 (1-10aa) K4E: unmodified H3 peptide (1-10aa) K4E mutant (ARTEQTARKS; UniProt P68431 2-11, looked up, variant K4E)” as the molecule, how does the KD (PHD1KDM5B (306–360 aa); [11]) read?
A: non-detectable

Q: “H3K4 (1-10aa) R2E: unmodified H3 peptide (1-10aa) R2E mutant (AETKQTARKS; UniProt P68431 2-11, looked up, variant R2E)” was tested. Which KD (PHD1KDM5B (306–360 aa); [11]) did it give?
A: too small to detect

B1: unmodified H3K4 peptide (residues 1-10) (peptide)
peptide: ARTKQTARKS
notes: histone H3 N-terminal tail, residues 1-10; also called H3K4me0; H3K4me0 peptide; source: synthetic peptide, bought: GL Biochem Ltd. (Shanghai, China)
Q: What does the source list for B1?
A: Kd (KDM5B-PHD1-V311A): 8.2 µM; Kd (KDM5B-PHD1-D332A): 11.3 µM; Kd (KDM5B-PHD1-D345A): 6.7 µM; Kd (KDM5B-PHD1-Y334A): 12.6 µM; Kd (KDM5B-PHD1-S333A): 12.9 µM; Kd (KDM5B-PHD1-D322A): 10.7 µM; Kd (KDM5B-PHD1-L309A): 8.3 µM; Kd (KDM5B-PHD1-L324A): 15.3 µM; Kd [2]: 41.7 ± 2.2 µM; Kd [3]: 4.3 ± 0.2 µM; Kd [4]: 75.8 ± 5.7 µM; Kd [5]: 28.1 ± 1.3 µM; Kd [6]: 182 ± 21.9 µM; Kd [7]: 14.1 ± 0.8 µM; Kd [8]: 6.4 µM

B2: tri-methylated H3K4me3 peptide (residues 1-10) (peptide)
peptide: ARTKQTARKS
modifications: trimethyl-lysine at K4
notes: histone H3 N-terminal tail, residues 1-10; source: synthetic peptide, bought: GL Biochem Ltd. (Shanghai, China)
Q: For B2, which Kd [8] is on record?
A: 104 µM

B3: PHD1 finger of KDM5B (residues 306-360), Q9UGL1 306-360 (protein)
chain: T1 sequence (Q9UGL1 306-360)
Q: Which results are given for B3?
A: Kd [9]: 15.9 µM; Kd [10]: 21.4 µM
